# Measured values: the DeepSol protein solubility set
# Assay: soluble on expression in E. coli; label from the status in PepcDB or PDB records
row,Sequence,soluble on expression in E. coli
1,SLEEPPKAVELEGLAACEGEYSQKYSTMSPLGSGAFGFVWTAVDKEKNKEVVVKFIKKEKVLEDCWIEDPKLGKVTLEIAILSRVEHANIIKVLDIFENQGFFQLVMEKHGSGLDLFAFIDRHPRLDEPLASYIFRQLVSAVGYLRLKDIIHRDIKDENIVIAEDFTIKLIDFGSAAYLERGKLFYTFCGTIEYCAPEVLMGNPYRGPELEMWSLGVTLYTLVFEENPFCELEETVEAAIHPPYLVSKELMSLVSGLLQPVPERRTTLEKLVTDPWVTQPVNLADYTWEEVCRVNKPESGVLSAASLEMGNRSLSDVAQAQELCGG,not soluble
2,SLEQPGFKLRAVTIHFEASADVDSIEDAVFKAKEAIDRLTAEKGVEVWSLRAVLTPGESVADSLGRVAELEPLVEEEGVFINLGLHNASADDWEAVSGIVESGFFLSFALENGTWEEARSYSKLLHRLADKSPDLAVHIGFNPLGTHILTPYFPLATSPGEQRTVTVALLYPRYLLESFRKGGLQAVIDSMVDAAQLSGEYGKAVAKDVEGSFAGVDLSISPWMEESSLALVEEVGGVRLPEPGFAYGLRLVNEAIAAAASKTGYAVGFNEVQLPVAEDSKLKVRVAELETSARDLLRLSGVCLAGLDMAVIPASLDGVAGLLLEARAYSRAKGSIVGVRLIPLDGVEPGDEVFLKRFGEVPVIPI,soluble
3,SLERSVNGKIQKADIFSVPVSFNANEVTHVDTPQEALAASLNKFGEVNLEYMENLSETGRQELLTQLENRIFYNPMMKNYEIKDRFIAGNVVAKVEWIENYLKDYPDDDASKKSLEALQKAIPEPISFELLDFNLGERWIPVSVYEEFAGYLFEAKAHIHYTESIDEFSVSFEETNANITDRYYVKGEKRGYYGNDLLKHALHNTVPDITKTVQDEEGNDIKVRDAEAIQLADAKINEIRSAFTGWLNEQLPEFKQHLADMYNRKFNCYVRPDYDGSLQSFPFLDLKGLGIPSLYDSQ,not soluble
4,SLGGLKLGDLCRLKGQETNTLQGLGLVVGLQGTGDGDAAPKGRALARMMQLMGGPMAVDAAGRLNIEDVGDAKNVAMVFVSATIPTVGAQQGDVLDVTINAISAKSLDGGYLMLTPMLGPRADNPTVYGMAEGRISVSADSPPTSATIQGGLKMETSVRASYVHDNRITLVIDRDFADFSTAHMIEEEVNSLTSFTIGDRNVSRLASPNHQGTGQDGNIALARAIDQLHVEVVIPPTYRDNPIKFIAFLLDIVIPLSNRGKRVVINEADGVVVIGEDVEIAPVLVTHRNLRIEAGGGGRFVEVGPDGTPAAAKLKSLADALGALDVPTEDLIAIIKTLKAKGDLYGEVIFR,not soluble
5,SLGSQGSGLEQSSFQWSPSGRRTGSLYCRVGIGFHLQIYPDGKVNGSHEANMLSVLEIFAVSQGIVGIRGVFSNKFLAMSKKGKLHASAKFTDDCKFRERFQENSYNTYASAIHRTEKTGREWYVALNKRGKAKRGCSPRVKPQHISTHFLPRFKQSEQPELSFTVTVPEKEG,soluble
6,SLLPDIPEPLKNGTGAIDNNGVIYVGLGTAGTSWYKIDLKKQHKDWERIKSFPGGAREQSVSVFLNDELYVFGGVGKKNSESPLQVYSDVYKYSPVKNTWQKVDTISPVGLTGHTGVKLNETMVLITGGVNEHIFDKYFIDIAAAAADESEKNKVIYNYFNKPAKDYFFNKIVFIYNAKENTWKNAGELPGAGTAGSSSVMGNNFLMLINGELKPGLRTDVIYRAMWDNDKLTWLKNSQLPPSPGEQQQEGLAGAFSGYSHGVLLVGGGANFPGAKQNYTNGKFYSHEGINKKWRDEVYGLINGHWQYMGKMKQPLGYGVSVSYGDEVFLIGGENAKGKPVSSVTSFTMRDGNLLIK,not soluble
7,SLNEGQEMEEQFALLLETLKNQQMNEFRELFLALHIYEQGQFYQSLDEKDRQHLYNYLSPKELADMFDVIEEDNENMKDYLAEMRPSYAADMLAEMYTDNAVDLLNMLDKSQKAKYLSLLSSEEAGEIKELLHYEDETAGAIMTTEFVSIVANQTVRSAMYVLKNQADMAETIYYVYVVDQENHLVGVISLRDLIVNDDDTLIADILNERVISVHVGDDQEDVAQTIRDYDFLAVPVTDYDDHLLGIVTVDDIIDVIDDEAASDYSGLAGVDVEEVSENPLKAASK,soluble
8,SLNVNFFVTCIGDALKSRMARDSVLLLEKLGCRVNFPEKQGCCGQPAINSGYIKEAIPGMKNLIAALEDNDDPIISPAGSCTYAVKSYPTYLADEPEWASRAEKVAARMQDLTSFIVNTLGVVDVGASLQGRAVYHPSCSLARKLGVKDEPLTLLKNVRGLELLTFAEQDTCCGFGGTFSVKMAEISGEMVKEKVAHLMEVRPEYLIGADVSCLLNISGRLQREGQKVKVMHIAEVLMSR,soluble
9,SLNVPDMILYNGKITTLDPSQPEVSAIAITDGLITAVGGYELLNSATEKTKKIDLKRKRAIPGLNDSHIHVIRGGLHYNMELRWEGVPSIAIALEMLKEQARRTPAPQWVRVVGGWSEFQFKERRMPTLEEINAVSEDTPVFVLHLYDRALVNRAGLRALGYTKDTPDPPGCLIERDKRGNPTGLLIANPNASILYSSLGKAPILNFDDQINSTRHFMRELNRLGITSAIDAGGGFQNYPDDYRVVEHLAEKEQLTLRIAYNLFTQNPNHEYEDFASWAKIVSPGQGNDKYKMNGAGEMLVFSAADFEKFQMPRPELATMMEADLKKVISLLVENRWPFRLHATYDESITRFLNVFEEVNKEIPFNGLRWWFDHAETISDRSMERVKALNGGIAIQDRMAFQGEYFVDLYGKEAAKRTPPIYRMLDLGIPVGAGSDATRVSSYNPWVALYWMVAGKTIGGLSIYDKKNKLDRKVALELYSKGSAWFSGDEGKKGTLAVGQFADIAVLSADYFTVPEEEIKDLESLLTIMGGQVVYGNDEFKNLSPELPPASPDWSPTGVYGYGGANLAHTILSHNSHDNKLHSCSNPLHQHTHTVIGKDGTKWGIGCTCFAF,not soluble
10,SLQGKPTISVPEFKNDTNMSWWWWSGNTSRELADALSNELTSTGNFQVVERQNLGSVLSEQELAELGLTRPETSAQRGQLTGAQYIVLGRVTAYEEGVSSESGGNNFGLNLGLFSIGNSERQAKQEAYVAIDLRVVDSSTGEVVYARTVEGRATDTAASSANNVNILGIVNTGQDNQSTSRAPVGKALRAGLVEITDYLSCVMVEQDNCIQEYQDKDRQRRQKTKDTLILE,soluble
11,SLQKLQAQGVHHITLVGAGRQTSIDFWEGVLGMPFIFEQPNLDKASESHLYFDPGDGRLITVFTDESRTPQKRRTPTDPGCVHHIAFAVSRVTFLQAVARLDERGIKHSGVKDRGFMDSIYFEDPLGLLIELASYRFEPPAGFTHADVLMQAHRLRVGRGDYNIAEVHLADAIQVLVESSREG,soluble
12,SLRFYAACLASYNNGVLHGRWIDASSDTDEMQEEVSAMLRASRFPNVMVKCPNCEGRLELCTVCDGGSREVPSAEEWAIHDYDGLPSSLGEYPGLDKIAAFVELCEEHDMTGEDMAAIVSHFGSVEYAKEELGNNFVGVHESFRAYAEELADEMLSAHDIKADHPLSQYFDYEAYARDLRHSASAVELDEGVAVFCV,soluble
13,SLRITRIRLYKTDLPYVDGSYGWGAGNAITVARASVVVIDTDAGLQGCGEFTPCGENYMIAHSEGVDAFARLAAPQLLGQDPRQVARMERLMDHLVQGHGYAKAPFDAAFWDILGQATGQPVWMLLGGKLCDGAPMYRVAPQRSEAETRAELARHRAAGYRQFQIKVGADWQSDIDRIRACLPLLEPGEKAMADANQGWRVDNAIRLARATRDLDYILEQPCRSYEECQQVRRVADQPMKLDECVTGLHMAQRIVADRGAEICCLKISNLGGLSKARRTRDFLIDNRMPVVAEDSWGGEIASAAVAHFAASTPEEFLINSTDLMNYNTRSTGLGGPTVHQGRLYASDTPGLGVTPDFNSLGAPVADWALP,not soluble
14,SLSRPWQGKGCATLWASVDHRFQINLRGVIDLLSHHLYSSPDVYIRELLQNATDAIRARQHLEPGHEGSIRIELIEKQDGGPPTLLFSDDGIGLTEEEIHRFLATIGESSKREVLAERRGDFIGQFGIGLLSCFMVCDEVLVVTRSAQGGSPTMEWRGRHDGIYTVRPSGHPLERPGTQVFLVARPDAASLFTPQRVRELALHYGGLLPFPIHLTAGGYSGRINTEG,soluble
15,SLSSPLLPAPVCNPNKAIFTVDAKTTEILVANDKACGLLGYSSQDLIGQKLTQFFLRSDSDVVEALSEEHMEADGHAAVVFGTVVDIISRSGEKIPVSVWMKRMRQERRLCCVVVLEPVER,soluble
16,SLSVVAPAVYVGTWHKYNCGSIAGRWFDLTTFDDERDFFAACRALHQDEADPELMFQDYEGFPGNMASECHINWAWVEGFRQARDEGCEEAYRLWVEDTGETDFDTFRDAWWGEADSEEAFAVEFASDTGLLADVPETVALYFDYEAYARDLFLDSFTFIDGHVFRR,soluble
17,SLTRNNELIAVGKGSSLKRLPVFGMEPRILYNPLQGQKCIVQTTSWSQCSKTCGTGISTRVTNDNPECRLVKETRICEVRPCGQPVYSSLKKGKKCSKTKKSPEPVRFTYAGCLSVKKYRPKYCGSCVDGRCCTPQLTRTVKMRFRCEDGETFSKNVMMIQSCKCNYNCPHANEAAFPFYRLFNDIHKFRDEG,not soluble
18,SLVSSSKITRAREMVTKTEEKQLNQLEIQVDNGGGGTWEYLCLVRNLKVRRSEKVLKHGSSILNDQKKRSALGPDEWTLNEQVAIAAMDCQCLGVAQSCIKALQTKFPGSKRVGRLEALLLEAKGLWGEAEEAYASLLEDNPLDQAIHKRRVAISKALGKPSIAIELLNKYLELFMADHDAWRELAELYLSLQMYKQAAFCYEELILSQPTVPLYHLAYAEVLYTIGGVENIISARKYYAATVDLTGGKNTRALLGICLCASAIAQLSKGRNKEDKDATAAPELHSLAAAAVEKEYKQKAPDKLQLISSALRILKT,soluble
19,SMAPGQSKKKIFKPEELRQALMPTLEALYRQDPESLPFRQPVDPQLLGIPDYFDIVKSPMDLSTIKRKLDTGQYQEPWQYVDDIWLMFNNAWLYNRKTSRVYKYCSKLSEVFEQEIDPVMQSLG,soluble
20,SMEVFQNHFEPGVYVCAKCGYELFSSRSKYAHSSPWPAFTETIHADSVAKRPEHNRSEALKVSCGKCGNGLGHEFLNDGPKPGQSRFSIFSSSLKFVPKGKETSA,soluble
21,SMFKYEEIVLERGNSGLGFSIAGGIDNPHVPDDPGIFITKIIPGGAAAMDGRLGVNDCVLRVNEVDVSEVVHSRAVEALKEAGPVVRLVVRRRQPPPEETSV,soluble
22,SMKQDSRFPNLFILDHPLIQHKLTHMRDKDTSTRTFRELLREITLLMGYEITRNLPITTKRVETPLVEIDAPVIAGKKLAIVPVLRAGVGMSDGLLELIPSARVGHIGVYRADDHRPVEYLVRLPDLEDRIFILCDPMVATGYSAAHAIDVLKRRGVPGERLMFLALVAAPEGVQVFQDAHPDVKLYVASLDSHLDDHAYIVPGLGDAGDRLFGTKN,soluble
23,SMSRKRPPSDIHDSDGSSSSSHQSLKSTAKWAASLENLLEDPEGVKRFREFLKKEFSEENVLFWLACEDFKKMQDKTQMQEKAKEIYMTFLSSKASSQVNVEGQSRLNEKILEEPHPLMFQKLQDQIFNLMKYDSYSRFLKSDLFLKHKRTEE,soluble
24,SMVQSSGPMDVTSLTEELKKLAKQGWYWGPITRWEAEGKLANVPDGSFLVRDSSDDRYLLSLSFRSHGKTLHTRIEHSNGRFSFYEQPDVEGHTSIVDLIEHSIGDSENGAFCYSRSRLPGSATYPVRLTNPVSRFMQVRS,soluble
